Measurements taken from US20250250343A1.
Like-named read-outs stand apart in the source and are kept apart here. One block for each substance: values may come before it.

Key:
human Tie2 (human) [1] = biological target: human Tie2 (human) (UniProt Q02763)
human Tie2 (human) [2] = biological target: human Tie2 (human) (UniProt Q02763); remark: listed apart in the source
human Tie2 (human) [3] = biological target: human Tie2 (human) (UniProt Q02763); remark: listed apart in the source
human Tie2 (human) [4] = biological target: human Tie2 (human) (UniProt Q02763); remark: listed apart in the source
human Tie2 (human) [5] = biological target: human Tie2 (human) (UniProt Q02763); remark: listed apart in the source
VEGF (human) [6] = biological target: VEGF (human) (UniProt P15692)
VEGF (human) [7] = biological target: VEGF (human) (UniProt P15692); remark: listed apart in the source
VEGF (human) [8] = biological target: VEGF (human) (UniProt P15692); remark: listed apart in the source

Chain of human Tie2 (human) (Q02763 23-1124): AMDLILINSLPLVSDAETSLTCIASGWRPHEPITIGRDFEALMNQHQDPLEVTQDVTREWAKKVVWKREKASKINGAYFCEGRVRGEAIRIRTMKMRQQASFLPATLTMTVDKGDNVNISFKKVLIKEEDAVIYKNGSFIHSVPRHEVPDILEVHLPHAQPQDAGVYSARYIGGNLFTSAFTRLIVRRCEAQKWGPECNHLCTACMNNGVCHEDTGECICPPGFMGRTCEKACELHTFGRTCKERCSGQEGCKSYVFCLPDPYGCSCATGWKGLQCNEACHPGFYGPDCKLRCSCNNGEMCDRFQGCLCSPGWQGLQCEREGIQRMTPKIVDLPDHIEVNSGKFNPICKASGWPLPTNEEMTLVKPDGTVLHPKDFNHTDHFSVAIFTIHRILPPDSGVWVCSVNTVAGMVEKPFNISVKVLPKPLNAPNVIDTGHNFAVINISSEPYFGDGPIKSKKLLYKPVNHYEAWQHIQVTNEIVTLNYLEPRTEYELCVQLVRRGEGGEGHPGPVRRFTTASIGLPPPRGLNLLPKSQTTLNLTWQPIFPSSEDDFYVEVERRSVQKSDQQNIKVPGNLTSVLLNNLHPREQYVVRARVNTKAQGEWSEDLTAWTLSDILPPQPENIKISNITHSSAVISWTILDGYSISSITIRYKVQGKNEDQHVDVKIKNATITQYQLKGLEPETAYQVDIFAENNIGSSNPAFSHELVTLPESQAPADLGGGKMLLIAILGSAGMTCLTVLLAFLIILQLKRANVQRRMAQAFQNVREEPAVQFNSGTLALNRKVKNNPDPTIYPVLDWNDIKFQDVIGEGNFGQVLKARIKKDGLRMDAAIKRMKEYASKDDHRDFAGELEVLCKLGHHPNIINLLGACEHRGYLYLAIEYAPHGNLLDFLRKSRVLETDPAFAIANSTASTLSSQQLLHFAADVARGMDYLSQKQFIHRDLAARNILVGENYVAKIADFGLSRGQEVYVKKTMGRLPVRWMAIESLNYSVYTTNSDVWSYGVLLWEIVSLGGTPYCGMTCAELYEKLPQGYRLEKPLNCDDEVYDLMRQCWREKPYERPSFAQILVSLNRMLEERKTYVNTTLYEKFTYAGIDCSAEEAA
Chain of VEGF (human) (P15692 other isoform, or with tags, fused parts or gaps limits assumed): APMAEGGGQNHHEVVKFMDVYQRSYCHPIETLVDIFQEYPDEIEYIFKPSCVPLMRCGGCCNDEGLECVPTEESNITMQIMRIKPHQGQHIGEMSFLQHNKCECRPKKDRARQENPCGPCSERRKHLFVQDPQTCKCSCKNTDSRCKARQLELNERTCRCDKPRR
Chain of Ang1 (Q15389 20-498 limits assumed): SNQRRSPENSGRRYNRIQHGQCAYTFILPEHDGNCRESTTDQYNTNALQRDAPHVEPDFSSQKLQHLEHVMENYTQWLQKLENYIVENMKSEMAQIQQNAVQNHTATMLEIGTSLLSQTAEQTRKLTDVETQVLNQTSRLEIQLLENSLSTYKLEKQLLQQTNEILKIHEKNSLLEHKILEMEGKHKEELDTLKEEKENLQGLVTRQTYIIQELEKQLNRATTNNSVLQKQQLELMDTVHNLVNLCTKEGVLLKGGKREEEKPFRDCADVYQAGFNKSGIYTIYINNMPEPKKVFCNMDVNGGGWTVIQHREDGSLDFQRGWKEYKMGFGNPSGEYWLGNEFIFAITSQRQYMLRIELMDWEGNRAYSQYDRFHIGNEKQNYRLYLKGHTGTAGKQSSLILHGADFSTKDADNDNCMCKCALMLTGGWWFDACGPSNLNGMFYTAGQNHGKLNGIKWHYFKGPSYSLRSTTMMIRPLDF
Chain of Aflibercept-LALA-PG (Fc fusion) (chain): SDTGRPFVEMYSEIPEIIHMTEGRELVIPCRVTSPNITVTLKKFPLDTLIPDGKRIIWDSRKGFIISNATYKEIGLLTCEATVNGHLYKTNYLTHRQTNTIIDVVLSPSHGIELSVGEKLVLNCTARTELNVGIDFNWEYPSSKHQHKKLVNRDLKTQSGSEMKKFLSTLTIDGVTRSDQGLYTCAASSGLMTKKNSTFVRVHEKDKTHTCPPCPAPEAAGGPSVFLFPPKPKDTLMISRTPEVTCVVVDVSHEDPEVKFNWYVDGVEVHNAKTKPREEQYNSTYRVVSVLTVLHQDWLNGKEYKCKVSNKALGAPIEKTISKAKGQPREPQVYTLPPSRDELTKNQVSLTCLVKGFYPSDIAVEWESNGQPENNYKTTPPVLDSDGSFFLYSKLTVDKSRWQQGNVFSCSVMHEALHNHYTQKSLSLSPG
Chain of Aflibercept (Fc fusion) (chain): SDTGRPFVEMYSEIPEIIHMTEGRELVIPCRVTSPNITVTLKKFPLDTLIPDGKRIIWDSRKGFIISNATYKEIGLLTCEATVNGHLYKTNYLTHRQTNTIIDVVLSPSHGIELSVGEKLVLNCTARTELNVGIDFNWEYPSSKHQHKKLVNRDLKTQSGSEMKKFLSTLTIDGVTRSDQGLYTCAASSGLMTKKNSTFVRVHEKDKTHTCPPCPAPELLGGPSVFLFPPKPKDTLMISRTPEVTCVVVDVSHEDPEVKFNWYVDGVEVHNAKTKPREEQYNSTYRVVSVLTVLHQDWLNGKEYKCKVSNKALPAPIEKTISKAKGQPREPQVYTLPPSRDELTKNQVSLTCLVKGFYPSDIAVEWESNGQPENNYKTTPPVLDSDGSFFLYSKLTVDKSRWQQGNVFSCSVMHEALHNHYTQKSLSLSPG

- EC50, pAkt in HUVEC (MSD ELISA) [Panel B] (human Tie2 (human) [1]): 1.71 nM
- EC50, pTIE2 in HUVEC [Panel C] (human Tie2 (human) [2]): 1.77 nM
- EC50, pTie2 in HUVEC (in vitro potency) (human Tie2 (human) [3]): 4.58 nM
- EC50, pTie2 in HUVEC, W/ VEGF (20 nM VEGF-165 per paragraph 153) [Panel E] (human Tie2 (human) [4]): 2.4 nM
- EC50, pTie2 in HUVEC, W/O VEGF [Panel E] (human Tie2 (human) [4]): 1.61 nM
- EC50, pAkt in HUVEC (MSD ELISA) [Panel B] (human Tie2 (human) [5]): 4.1 nM
Substance: Ang1 (from UniProt Q15389 20-498) (ligand)

- IC50 (read off the curve); % VEGF activity, KDR/NFAT-RE HEK293 luciferase reporter [Panel A] (VEGF (human) [6]): 0.6 nM
- EC50, VEGF neutralisation, KDR/NFAT-RE HEK293 luciferase reporter (VEGF (human) [7]): 0.56 nM
Substance: Aflibercept-LALA-PG (Fc fusion)

- EC50, VEGF inhibition, KDR/NFAT-RE HEK293 luciferase reporter [Panel C] (VEGF (human) [8]): 0.28 nM
Substance: Aflibercept (Fc fusion)
